Biological target: NKG2D on effector cells (NK cells, MNC) (human) (UniProt P26718)
Test: cell-based or functional assay

Sequence of UniProt P26718 (P26718 whole entry): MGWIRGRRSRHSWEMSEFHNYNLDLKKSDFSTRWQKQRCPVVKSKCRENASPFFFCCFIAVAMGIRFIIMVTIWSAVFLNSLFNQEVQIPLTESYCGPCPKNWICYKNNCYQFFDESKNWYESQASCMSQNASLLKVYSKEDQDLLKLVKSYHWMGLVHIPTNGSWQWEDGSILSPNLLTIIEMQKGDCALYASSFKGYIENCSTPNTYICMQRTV

- maximum lysis, CD19-DE mediated ADCC against GRANTA-519 with MNC, in combination with the bsAb (4 h 51Cr release): 24.5%
B1: bispecific antibody [CD20×NKG2D #3] (bispecific antibody, part only; not given: constant regions, Fab-scFv linker, tags, not shown: another chain or arm of the molecule; a dimerising Fc or GST; small tags and cut ends)
VH: QVQLQQPGAELVKPGASVKMSCKASGYTFTSYNMHWVKQTPGRGLEWIGAIYPGNGDTSYNQKFKGKATLTADKSSSTAYMQLSSLTSEDSAVYYCARSTYYGGDWYFNVWGAGTTVTVSS
VL: QIVLSQSPAILSASPGEKVTMTCRASSSVSYIHWFQQKPGSSPKPWIYATSNLASGVPVRFSGSGSGTSYSLTISRVEAEDAATYYCQQWTSNPPTFGGGTKLEIK
scFv: QVQLVQSGAEVKKPGASVKVSCKASGYTFTSYGISWVRQAPGQGLEWMGGIIPIFGTANYAQKFQGRVTITADESTSTAYMELSSLRSEDTAVYYCAKDLYDYVWGSYRPNWYFDLWGRGTLVTVSSGSASAPKLEEGEFSEARVSSELTQDPAVSVALGQTVRITCQGDSLRGYYASWYQQKPGQAPVLVTYGNNKRPSGIPDRFSGSSSGNTASLTITGTQAEDEADYYCNSRDNNGNFVIFGGGTKLTVL
